T1: Boi2 SH3 (BOI2_YEAST), P39969
T1 chain: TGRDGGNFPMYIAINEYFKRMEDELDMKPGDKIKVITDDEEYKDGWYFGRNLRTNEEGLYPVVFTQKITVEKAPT

T2: Rvs167 SH3 (RV167_YEAST), P39743
T2 chain: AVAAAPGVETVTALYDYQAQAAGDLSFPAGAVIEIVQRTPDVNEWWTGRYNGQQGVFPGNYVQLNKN

T3: Yhr016c SH3 (YSC84_YEAST), P32793
T3 chain: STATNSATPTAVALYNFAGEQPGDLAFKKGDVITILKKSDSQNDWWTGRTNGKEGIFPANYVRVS

T4: Yfr024 SH3 (LSB3_YEAST), P43603
T4 chain: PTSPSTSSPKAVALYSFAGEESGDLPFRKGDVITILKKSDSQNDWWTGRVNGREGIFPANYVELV

T5: Boi1 SH3 (BOI1_YEAST), P38041
T5 chain: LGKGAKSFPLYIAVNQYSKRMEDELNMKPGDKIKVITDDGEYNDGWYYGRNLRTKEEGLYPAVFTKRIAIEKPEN

T6: Myo5 SH3 (MYO5_YEAST), Q04439
T6 chain: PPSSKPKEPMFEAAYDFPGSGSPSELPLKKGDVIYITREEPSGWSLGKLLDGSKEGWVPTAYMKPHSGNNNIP

B1: YGR061C 462-475 (peptide)
chain: QFALKNTPITPGSS
B2: YDL076C 274-287 (peptide)
chain: QRLDRDKPHEPNGY
B3: YGR143W 154-167 (peptide)
chain: QPPDRNLPSHPSSN
B4: YIL122W 8-21 (peptide)
chain: QSEEKEKPKGPMAV
B5: YJL020C 471-484 (peptide)
chain: QELPRAIPVMPFVD
B6: YGL173C 401-414 (peptide)
chain: QLQEKLSPDLPDEE
B7: YOR181W 378-391 (peptide)
chain: QATGRRGPAPPPPP
B8: YPL137C 764-777 (peptide)
chain: PYMYKYLPRFPNLK
B9: YBL081W 84-97 (peptide)
chain: QSINRSIPSAPYGA
B10: YHR036W 42-55 (peptide)
chain: QLINRFMPHFPSSP
B11: YDR449C 169-182 (peptide)
chain: QNGLRFNPDVPKLW
B12: YLR095C 762-775 (peptide)
chain: QTGSKTVPQAPQAP
B13: YDR122W 964-977 (peptide)
chain: QGSNKYSPSSPLTT
B14: YHL007C 236-249 (peptide)
chain: QHKPKVKPSKPEAK
B15: YJL128C 89-102 (peptide)
chain: QIVNKPLPPLPVAG
B16: YCR030C 484-497 (peptide)
chain: QSKTKPLPVEPASP

Experiments:
Assay in all cases: SPOT array
[1] = molecular target: T1, Boi2 SH3 (BOI2_YEAST), P39969
[2] = molecular target: T2, Rvs167 SH3 (RV167_YEAST), P39743
[3] = molecular target: T3, Yhr016c SH3 (YSC84_YEAST), P32793
[4] = molecular target: Sho1 SH3 (SHO1_YEAST), P40073
Sequence of Sho1 SH3 (SHO1_YEAST), P40073 (P40073 295-366): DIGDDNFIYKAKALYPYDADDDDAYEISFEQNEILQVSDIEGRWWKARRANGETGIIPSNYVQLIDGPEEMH

[5] = molecular target: T4, Yfr024 SH3 (LSB3_YEAST), P43603
[6] = molecular target: T5, Boi1 SH3 (BOI1_YEAST), P38041
[7] = molecular target: T6, Myo5 SH3 (MYO5_YEAST), Q04439

| Binder | normalised SPOT signal, Boehringer light units (BLU); mean over the file's lines of this peptide [1] | normalised SPOT signal, Boehringer light units (BLU); mean over the file's lines of this peptide [2] | normalised SPOT signal, Boehringer light units (BLU); mean over the file's lines of this peptide [3] | normalised SPOT signal, Boehringer light units (BLU); mean over the file's lines of this peptide [4] | normalised SPOT signal, Boehringer light units (BLU); mean over the file's lines of this peptide [5] | normalised SPOT signal, Boehringer light units (BLU); mean over the file's lines of this peptide [6] | normalised SPOT signal, Boehringer light units (BLU); mean over the file's lines of this peptide [7] |
| --- | --- | --- | --- | --- | --- | --- | --- |
| B1 | 0 | 79.8 | 33.6 | 36.4 | 66.9 | 142 | 111 |
| B2 | 12 | 52 | 19.3 | 37.3 | 105 | 104 | 218 |
| B3 | 13.7 | 48.2 | 19.4 | 78.5 | 48.8 | 19.4 | 156 |
| B4 | 16.6 | 20.6 | 18.1 | 36.1 | 109 | 88.1 | 197 |
| B5 | 22.2 | 57 | 118 | 11.6 | 700 | -0 | 118 |
| B6 | 27.9 | 59.4 | 16.4 | 27.1 | 11.2 | 49.4 | 216 |
| B7 | 11.1 | 30.1 | 37.1 | 63.2 | 49.6 | 102 | 607 |
| B8 | 991 | 920 | 432 | 1590 | 1150 | 177 | 382 |
| B9 | 122 | 89 | 42.2 | 44.4 | 178 | 37.4 | 208 |
| B10 | 325 | 716 | 316 | 323 | 2780 | 273 | 518 |
| B11 | 0 | 22.1 | 8.3 | 37.6 | 86.7 | 64.6 | 260 |
| B12 | 17.8 | 56.5 | 28.7 | 37.7 | 6.6 | 45.3 | 62.9 |
| B13 | 31.3 | 37.5 | 146 | 44.3 | 74.9 | 34.7 | 171 |
| B14 | 40.3 | 70.6 | 9.7 | 88.9 | 12.8 | 2560 | 956 |
| B15 | 13.7 | 41.5 | 28.6 | 60100 | 1720 | 56.1 | 249 |
| B16 | 5.9 | 90.1 | 65.4 | 9780 | 64.3 | 80.3 | 122 |

Source: paper PMC314469, “Protein Interaction Networks by Proteome Peptide Scanning” (PLoS Biology, 2004)
